Test results published in the supplement of paper PMC10065799, “High-throughput profiling of sequence recognition by tyrosine kinases and SH2 domains using bacterial peptide display” (eLife, 2023).

Tests used:
AncSZ = assay: phosphorylation enrichment, bacterial display (enrichment ratio); higher = better substrate or ligand; peptides without Tyr show the background
EPHB1 = EPHB1 (UniProt P54762); assay: as above
EPHB2 = EPHB2 (UniProt P29323); assay: as above
FGFR1 = FGFR1 (UniProt P11362); assay: as above
FGFR3 = FGFR3 (UniProt P22607); assay: as above
Sequence of FGFR3 (P22607 whole entry, looked up): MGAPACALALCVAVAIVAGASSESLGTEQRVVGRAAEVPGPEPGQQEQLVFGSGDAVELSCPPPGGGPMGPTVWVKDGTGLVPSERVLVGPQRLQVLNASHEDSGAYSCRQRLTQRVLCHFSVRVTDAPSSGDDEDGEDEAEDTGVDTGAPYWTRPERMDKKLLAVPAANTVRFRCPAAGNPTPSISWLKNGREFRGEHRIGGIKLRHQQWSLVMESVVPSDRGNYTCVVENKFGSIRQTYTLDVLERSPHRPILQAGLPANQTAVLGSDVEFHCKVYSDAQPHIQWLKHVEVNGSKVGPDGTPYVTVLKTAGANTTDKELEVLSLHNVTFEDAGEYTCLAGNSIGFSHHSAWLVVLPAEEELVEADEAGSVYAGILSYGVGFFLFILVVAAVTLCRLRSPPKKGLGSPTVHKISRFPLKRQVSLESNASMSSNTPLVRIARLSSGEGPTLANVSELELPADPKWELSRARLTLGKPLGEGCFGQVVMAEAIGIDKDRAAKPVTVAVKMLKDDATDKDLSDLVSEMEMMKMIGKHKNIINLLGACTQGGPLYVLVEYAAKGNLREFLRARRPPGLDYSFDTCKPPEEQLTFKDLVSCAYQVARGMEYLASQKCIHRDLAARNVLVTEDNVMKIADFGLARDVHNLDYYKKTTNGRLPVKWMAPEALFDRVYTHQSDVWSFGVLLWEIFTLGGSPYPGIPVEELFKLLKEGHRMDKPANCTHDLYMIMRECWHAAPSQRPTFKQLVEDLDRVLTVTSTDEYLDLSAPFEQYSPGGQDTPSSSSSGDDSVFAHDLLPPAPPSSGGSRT

Fer (mouse) = assay: as above
Fes = Fes (UniProt P07332); assay: as above
Sequence of Fes (P07332 whole entry, looked up): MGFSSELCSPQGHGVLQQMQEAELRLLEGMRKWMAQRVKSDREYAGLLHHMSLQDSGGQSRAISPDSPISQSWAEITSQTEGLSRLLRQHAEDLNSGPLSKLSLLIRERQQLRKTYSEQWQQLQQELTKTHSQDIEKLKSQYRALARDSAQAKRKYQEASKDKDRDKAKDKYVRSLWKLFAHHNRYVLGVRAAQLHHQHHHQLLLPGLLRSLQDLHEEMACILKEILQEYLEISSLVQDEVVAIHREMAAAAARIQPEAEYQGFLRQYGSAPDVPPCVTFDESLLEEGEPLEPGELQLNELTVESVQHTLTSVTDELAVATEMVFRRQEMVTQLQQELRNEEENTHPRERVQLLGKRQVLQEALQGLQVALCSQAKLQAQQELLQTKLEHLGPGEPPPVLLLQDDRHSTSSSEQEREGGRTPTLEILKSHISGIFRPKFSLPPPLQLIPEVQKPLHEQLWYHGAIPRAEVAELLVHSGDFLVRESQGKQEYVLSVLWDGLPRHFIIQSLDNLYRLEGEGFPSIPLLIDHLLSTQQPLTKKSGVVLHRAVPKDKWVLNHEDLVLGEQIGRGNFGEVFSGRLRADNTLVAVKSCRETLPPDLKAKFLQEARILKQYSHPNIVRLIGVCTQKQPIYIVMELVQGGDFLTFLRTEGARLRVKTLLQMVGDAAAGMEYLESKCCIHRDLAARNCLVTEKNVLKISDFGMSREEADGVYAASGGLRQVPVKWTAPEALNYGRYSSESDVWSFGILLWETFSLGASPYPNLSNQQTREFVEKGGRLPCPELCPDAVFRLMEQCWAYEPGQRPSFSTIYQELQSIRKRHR

Fyn = Fyn (UniProt P06241); assay: as above
Hck = Hck (UniProt P08631); assay: as above
Jak2 = Jak2 (UniProt O60674); assay: as above
MERTK = MERTK (UniProt Q12866); assay: as above
Sequence of MERTK (Q12866 whole entry, looked up): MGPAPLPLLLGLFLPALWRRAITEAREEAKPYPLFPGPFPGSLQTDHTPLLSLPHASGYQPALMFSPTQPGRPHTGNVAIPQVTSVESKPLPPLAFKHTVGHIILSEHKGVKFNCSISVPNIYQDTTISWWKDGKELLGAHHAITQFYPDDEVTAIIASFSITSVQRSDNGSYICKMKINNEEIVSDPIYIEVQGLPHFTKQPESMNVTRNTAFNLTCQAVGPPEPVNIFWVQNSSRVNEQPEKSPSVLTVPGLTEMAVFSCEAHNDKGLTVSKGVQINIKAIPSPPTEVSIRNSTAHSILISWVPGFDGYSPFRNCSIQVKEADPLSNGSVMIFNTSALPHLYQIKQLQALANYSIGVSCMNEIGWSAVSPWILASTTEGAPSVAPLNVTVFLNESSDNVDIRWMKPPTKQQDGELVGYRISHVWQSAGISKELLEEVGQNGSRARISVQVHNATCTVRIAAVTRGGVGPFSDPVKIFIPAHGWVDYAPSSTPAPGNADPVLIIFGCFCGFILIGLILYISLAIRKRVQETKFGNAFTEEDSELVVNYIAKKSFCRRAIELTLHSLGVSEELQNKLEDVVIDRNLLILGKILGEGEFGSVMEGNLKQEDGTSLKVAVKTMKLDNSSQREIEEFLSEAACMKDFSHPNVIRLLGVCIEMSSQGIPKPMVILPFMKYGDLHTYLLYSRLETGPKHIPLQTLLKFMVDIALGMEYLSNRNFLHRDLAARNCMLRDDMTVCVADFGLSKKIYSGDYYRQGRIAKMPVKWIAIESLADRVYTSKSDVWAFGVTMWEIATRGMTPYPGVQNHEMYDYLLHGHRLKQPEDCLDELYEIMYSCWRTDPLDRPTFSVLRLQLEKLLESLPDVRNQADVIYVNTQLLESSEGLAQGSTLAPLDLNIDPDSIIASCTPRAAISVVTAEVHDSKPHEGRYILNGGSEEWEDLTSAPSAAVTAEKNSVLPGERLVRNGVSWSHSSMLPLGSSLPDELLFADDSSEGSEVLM

c-Abl (mouse) = assay: as above
c-Src = assay: as above
Grb2 SH2 = Grb2 SH2 (UniProt P62993); assay: SH2 binding enrichment of the phosphorylated peptide, bacterial display (enrichment ratio); higher = better substrate or ligand; peptides without Tyr show the background
SHP2-C SH2 = assay: as above
c-Src SH2 = assay: as above
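Throughout, for SH2 binding enrichment of the phosphorylated peptide, bacterial display: peptide library displayed on the E. coli surface as eCPX fusions, selected cells deep-sequenced, score is each peptide's frequency after selection divided by its frequency in the input.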
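Throughout, for phosphorylation enrichment, bacterial display: 11-residue human phosphosite peptides and single-mutation variants displayed on the E. coli surface, counted by deep sequencing, each peptide's frequency after selection divided by its frequency in the unselected input library; frequency after pTyr selection over input frequency; kinase dosed for 20-30% of maximal phosphorylation in three min.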

Sequence of EPHB2 (P29323 whole entry, looked up): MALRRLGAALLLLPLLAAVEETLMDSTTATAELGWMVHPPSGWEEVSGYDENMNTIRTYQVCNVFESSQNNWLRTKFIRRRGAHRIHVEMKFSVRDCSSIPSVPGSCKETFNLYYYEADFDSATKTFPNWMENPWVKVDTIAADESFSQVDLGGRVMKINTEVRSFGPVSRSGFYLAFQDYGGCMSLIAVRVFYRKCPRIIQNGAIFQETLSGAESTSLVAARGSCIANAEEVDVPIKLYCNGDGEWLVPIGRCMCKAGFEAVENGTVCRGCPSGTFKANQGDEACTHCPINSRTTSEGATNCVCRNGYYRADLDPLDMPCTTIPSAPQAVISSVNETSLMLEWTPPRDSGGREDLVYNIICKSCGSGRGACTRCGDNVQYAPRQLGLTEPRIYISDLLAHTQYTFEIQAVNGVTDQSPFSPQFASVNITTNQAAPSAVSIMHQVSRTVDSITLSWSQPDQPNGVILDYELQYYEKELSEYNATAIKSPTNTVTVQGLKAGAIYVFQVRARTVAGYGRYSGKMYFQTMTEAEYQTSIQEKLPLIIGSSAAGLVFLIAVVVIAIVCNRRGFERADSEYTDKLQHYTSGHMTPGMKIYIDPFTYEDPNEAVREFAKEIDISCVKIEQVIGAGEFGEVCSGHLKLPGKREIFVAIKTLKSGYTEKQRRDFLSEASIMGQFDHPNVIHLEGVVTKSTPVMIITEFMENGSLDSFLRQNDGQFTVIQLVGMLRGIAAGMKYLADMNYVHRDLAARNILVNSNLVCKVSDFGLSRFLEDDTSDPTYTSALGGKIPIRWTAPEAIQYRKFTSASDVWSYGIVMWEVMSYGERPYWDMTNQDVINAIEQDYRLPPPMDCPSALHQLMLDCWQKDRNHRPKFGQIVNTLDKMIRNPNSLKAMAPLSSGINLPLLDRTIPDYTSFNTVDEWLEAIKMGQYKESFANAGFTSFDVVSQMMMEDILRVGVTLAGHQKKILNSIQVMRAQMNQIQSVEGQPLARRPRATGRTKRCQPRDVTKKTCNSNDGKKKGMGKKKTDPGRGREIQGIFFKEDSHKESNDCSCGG
Sequence of EPHB1 (P54762 whole entry, looked up): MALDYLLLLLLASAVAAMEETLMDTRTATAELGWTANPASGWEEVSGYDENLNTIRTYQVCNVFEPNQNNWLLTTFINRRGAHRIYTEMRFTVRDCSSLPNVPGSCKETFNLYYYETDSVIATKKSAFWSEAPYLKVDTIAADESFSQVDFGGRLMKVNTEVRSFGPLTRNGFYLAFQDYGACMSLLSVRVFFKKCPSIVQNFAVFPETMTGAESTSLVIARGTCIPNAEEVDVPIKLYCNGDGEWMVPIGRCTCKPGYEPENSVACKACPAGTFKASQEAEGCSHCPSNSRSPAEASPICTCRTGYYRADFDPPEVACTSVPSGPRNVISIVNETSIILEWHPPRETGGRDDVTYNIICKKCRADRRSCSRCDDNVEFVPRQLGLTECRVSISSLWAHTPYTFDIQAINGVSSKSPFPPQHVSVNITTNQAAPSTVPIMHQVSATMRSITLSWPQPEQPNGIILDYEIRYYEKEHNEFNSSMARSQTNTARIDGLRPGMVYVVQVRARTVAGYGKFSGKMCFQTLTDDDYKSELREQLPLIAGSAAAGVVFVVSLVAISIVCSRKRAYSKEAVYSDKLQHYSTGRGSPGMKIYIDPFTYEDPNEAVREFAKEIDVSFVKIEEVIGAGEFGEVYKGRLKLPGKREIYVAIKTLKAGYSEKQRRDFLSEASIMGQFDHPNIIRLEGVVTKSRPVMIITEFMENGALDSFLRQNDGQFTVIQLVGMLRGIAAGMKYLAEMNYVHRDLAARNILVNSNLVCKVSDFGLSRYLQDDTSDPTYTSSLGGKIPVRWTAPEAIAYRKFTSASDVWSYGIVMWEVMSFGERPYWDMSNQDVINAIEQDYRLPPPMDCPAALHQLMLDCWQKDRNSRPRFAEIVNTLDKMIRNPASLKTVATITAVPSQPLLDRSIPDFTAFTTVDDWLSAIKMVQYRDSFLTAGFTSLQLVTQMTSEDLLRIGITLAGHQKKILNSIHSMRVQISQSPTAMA

SH2 binding enrichment (Grb2 SH2) | SH2 binding enrichment (SHP2-C SH2) | SH2 binding enrichment (c-Src SH2) | Sequence | phosphorylation enrichment (AncSZ) | phosphorylation enrichment (EPHB1) | phosphorylation enrichment (EPHB2) | phosphorylation enrichment (FGFR1) | phosphorylation enrichment (FGFR3) | phosphorylation enrichment (Fer (mouse)) | phosphorylation enrichment (Fes) | phosphorylation enrichment (Fyn) | phosphorylation enrichment (Hck) | phosphorylation enrichment (Jak2) | phosphorylation enrichment (MERTK) | phosphorylation enrichment (c-Abl (mouse)) | phosphorylation enrichment (c-Src)
1.91 | 1.55 | 1.54 | MKKQKYGRIIM [HSD17B4_Y143] | 0.497 | 0.551 | 0.531 | 0.517 | 0.971 | 0.565 | 0.89 | 0.443 | 0.396 | 0.998 | 0.499 | 0.771 | 0.422
0.746 | 0.758 | 0.505 | GPSTPYTKSKR [SMARCC2_Y324] | 0.408 | 0.322 | 0.299 | 0.363 | 0.362 | 0.324 | 0.511 | 0.405 | 0.319 | 0.497 | 0.353 | 0.651 | 0.452
0.669 | 0.839 | 0.586 | RNFVRYVQGLK [VWF_Y1400] | 0.277 | 0.324 | 0.37 | 0.255 | 0.445 | 0.309 | 0.599 | 0.511 | 0.339 | 0.556 | 0.48 | 0.548 | 0.566
0.635 | 0.638 | 0.385 | ASPKSYPSQKH [CAP2_Y316_T311A] | 0.426 | 0.358 | 0.276 | 0.356 | 0.406 | 0.323 | 0.511 | 0.374 | 0.333 | 0.464 | 0.356 | 0.484 | 0.366
0.666 | 2.26 | 5.62 | PSELYYSKIGP [SMG1_Y2254] | 2.07 | 5.13 | 2.91 | 12.9 | 8.9 | 16.3 | 1.68 | 8.78 | 18.8 | 4.02 | 23.8 | 3.88 | 10.8
1.02 | 0.882 | 0.641 | WQQQSYLFSGI [CTNNB1_Y30_D32Y_YF] | 0.977 | 0.461 | 0.57 | 0.473 | 0.57 | 0.398 | 0.928 | 0.454 | 0.44 | 0.972 | 0.414 | 0.765 | 0.467
0.682 | 0.503 | 0.34 | GGGGGYNRSSG [FUS_Y232] | 0.478 | 0.57 | 0.271 | 0.304 | 0.386 | 0.328 | 0.503 | 0.371 | 0.419 | 0.503 | 0.435 | 0.574 | 0.358
0.807 | 0.589 | 0.58 | DRLAVYIDRVS [LMNA_Y45_R50S] | 0.881 | 0.472 | 0.5 | 0.463 | 0.638 | 0.397 | 0.953 | 0.428 | 0.503 | 0.725 | 0.33 | 0.351 | 0.311
1.1 | 1 | 0.755 | PDNEPYIFKVF [PIK3AP1_Y553] | 2.37 | 0.684 | 0.787 | 1.16 | 1.5 | 0.647 | 2.25 | 0.846 | 0.758 | 2.79 | 0.725 | 1.19 | 1.05
0.77 | 0.694 | 0.443 | FADIAYNFRQG [PAH_Y166_H170Q_YF] | 0.772 | 0.47 | 0.486 | 0.398 | 0.601 | 0.35 | 0.86 | 0.425 | 0.505 | 0.701 | 0.41 | 0.665 | 0.5
0.674 | 0.548 | 0.433 | SRASFYRKGGC [ALK_Y1283_Y1278S_YF] | 0.702 | 0.431 | 0.467 | 0.381 | 0.496 | 0.476 | 0.627 | 0.433 | 0.477 | 0.615 | 0.567 | 0.529 | 0.575
1.05 | 0.559 | 0.68 | GQETSYIEDNC [PAH_Y24] | 1.47 | 0.83 | 0.758 | 0.452 | 0.769 | 0.51 | 1.28 | 0.507 | 0.666 | 1.15 | 0.466 | 0.74 | 0.515
0.869 | 0.706 | 0.771 | VKMLLYTEVTR [GDI1_Y93] | 1.32 | 3 | 1.25 | 0.529 | 0.883 | 1.08 | 1.43 | 0.759 | 1.24 | 1.23 | 2.58 | 0.83 | 0.834
0.826 | 0.781 | 0.936 | SVVVPYEPPGV [TP53_Y220_E224G] | 0.883 | 0.525 | 0.53 | 0.469 | 0.56 | 0.498 | 0.769 | 0.544 | 0.471 | 0.55 | 0.485 | 0.494 | 0.407
0.755 | 0.507 | 0.312 | PRPAGYPSMVS [CACNA1C_Y1832_T1835M] | 0.678 | 0.393 | 0.561 | 0.386 | 0.364 | 0.412 | 0.668 | 0.48 | 0.456 | 0.475 | 0.365 | 0.435 | 0.416
1.32 | 0.653 | 0.925 | FLAVEYHKPHI [IDS_Y225_G224E] | 0.779 | 0.417 | 0.459 | 0.393 | 0.515 | 0.354 | 0.814 | 0.337 | 0.38 | 1.05 | 0.302 | 1.6 | 0.387
0.75 | 0.673 | 0.475 | PEADKYRLTFA [FGG_Y300_YF] | 1.05 | 0.887 | 0.697 | 0.626 | 0.78 | 0.546 | 1.18 | 0.553 | 0.76 | 1 | 0.451 | 0.918 | 0.568

SH2 binding enrichment (Grb2 SH2) | SH2 binding enrichment (SHP2-C SH2) | SH2 binding enrichment (c-Src SH2) | Sequence | phosphorylation enrichment (AncSZ) | phosphorylation enrichment (EPHB1) | phosphorylation enrichment (EPHB2) | phosphorylation enrichment (FGFR1) | phosphorylation enrichment (FGFR3) | phosphorylation enrichment (Fer (mouse)) | phosphorylation enrichment (Fes) | phosphorylation enrichment (Fyn) | phosphorylation enrichment (Hck) | phosphorylation enrichment (Jak2) | phosphorylation enrichment (MERTK) | phosphorylation enrichment (c-Abl (mouse)) | phosphorylation enrichment (c-Src)
0.71 | 0.634 | 0.721 | QTEGEYSSLEH [IDH3B_Y171] | 1.79 | 0.91 | 1.01 | 0.995 | 0.874 | 0.836 | 1.82 | 0.886 | 1.04 | 1.64 | 0.556 | 1.94 | 1.26
0.69 | 0.631 | 0.545 | RDSQLYAVDYE [MRPS34_Y34] | 2.1 | 0.904 | 1.05 | 1.08 | 1.38 | 0.871 | 2.77 | 1.33 | 1.41 | 2.07 | 2.12 | 0.966 | 1.63
0.86 | 6.64 | 2.89 | ASYGPYTRVQS [FOXL2_Y258] | 0.551 | 0.415 | 0.583 | 0.422 | 0.427 | 0.438 | 0.623 | 0.673 | 0.793 | 0.539 | 0.376 | 0.464 | 0.559
0.893 | 0.992 | 0.452 | FHNSEYGELSE [FLT4_Y1337_Y1333H] | 1.18 | 0.613 | 0.504 | 0.569 | 0.738 | 0.473 | 1.23 | 1.1 | 0.724 | 1.05 | 0.352 | 0.806 | 0.849
2.09 | 1.17 | 1.47 | RALRHYYKLNI [ETV6_Y401] | 1.07 | 1.29 | 0.415 | 1.46 | 1.03 | 0.402 | 0.606 | 0.685 | 0.95 | 0.504 | 0.763 | 0.371 | 0.201
0.925 | 0.746 | 2.56 | DCVRMYELVHR [GLE1_Y135_G130D] | 1.21 | 7.46 | 3.53 | 0.594 | 0.831 | 7.12 | 1.31 | 0.754 | 2.57 | 1.09 | 3.03 | 1.03 | 1.3
1.05 | 0.917 | 0.739 | SVFNNYIQTLG [CTNND1_Y174_S171F] | 0.705 | 0.835 | 0.418 | 0.585 | 0.528 | 0.391 | 0.678 | 0.442 | 0.463 | 0.775 | 0.411 | 0.557 | 0.402
0.997 | 0.733 | 0.505 | QNAGDYFDLFG [PTPN11_Y62_T59A_YF] | 6.62 | 21.9 | 16.2 | 25.5 | 24.5 | 0.681 | 1.57 | 0.516 | 1.02 | 13.4 | 1.71 | 1.44 | 1.2
0.884 | 0.943 | 2.04 | CYSSEYHYVGG [CTSC_Y345_Y340C] | 4.45 | 5.54 | 5.91 | 13 | 9.68 | 1.26 | 1.1 | 1.57 | 2.29 | 1.77 | 4.76 | 2.79 | 2.02
0.797 | 0.634 | 0.488 | RGDVIYKGFED [NFU1_Y194_G189R] | 0.81 | 0.622 | 0.672 | 0.514 | 0.699 | 0.681 | 1.03 | 4.47 | 1.07 | 0.815 | 0.481 | 0.445 | 2.03
0.76 | 0.503 | 0.479 | SPRDTYSDRSG [CTPS1_Y567] | 0.494 | 0.298 | 0.473 | 0.382 | 0.438 | 0.369 | 0.572 | 0.443 | 0.507 | 0.521 | 0.322 | 0.608 | 0.375
1.13 | 1.12 | 0.648 | VRSVDYVLFRS [FAM189B_Y361] | 1.06 | 0.825 | 0.534 | 2.09 | 1.4 | 0.544 | 0.831 | 0.455 | 0.528 | 0.583 | 0.44 | 0.516 | 0.403
0.838 | 0.617 | 0.429 | QHNPEYVQQAT [LRRC7_Y1058_S1063T] | 0.612 | 0.425 | 0.455 | 0.505 | 0.553 | 0.461 | 0.799 | 0.422 | 0.491 | 0.985 | 0.238 | 0.517 | 0.284
0.761 | 0.547 | 0.421 | NTDETYSIDNE [TUBB2B_Y200_C201S] | 1.27 | 0.622 | 0.632 | 0.551 | 0.715 | 0.63 | 1.35 | 0.696 | 0.694 | 1.23 | 0.5 | 0.886 | 0.726
1.18 | 5.52 | 0.991 | RESSGYLRLAF [MEP1A_Y481] | 1.46 | 1.08 | 1.21 | 0.593 | 1.25 | 0.93 | 1.8 | 0.732 | 0.872 | 2.85 | 1.07 | 1.23 | 1.11
0.869 | 0.642 | 2.25 | FEGHSYSACTT [MMP9_Y241_R239H] | 0.95 | 0.617 | 0.524 | 0.533 | 0.656 | 0.644 | 1.1 | 0.512 | 0.486 | 1.03 | 0.562 | 1.34 | 0.59
